The sequences below were run on Escherichia coli TOP10 (assay: shrunken log2 fold change of peptide-encoding DNA abundance (4.5 h post-induction vs induction); higher = less antimicrobial activity (less host growth inhibition)). Conditions: time post-induction: 4.5 h; library: site-saturation at positions 5, 18, 19, 20.
RRIRSRPPRLPRPRPRPPKPPRP was tested, and the “shrunken log2 fold change” value was 0.149.
With RRIRARPPRLPRPRPRPLLAPRP the “shrunken log2 fold change” value was 0.949.
In the case of RRIRMRPPRLPRPRPRPNCQPRP, the “shrunken log2 fold change” value is reported as 0.356.
In the case of RRIRTRPPRLPRPRPRPYNFPRP, the “shrunken log2 fold change” value is reported as 0.0438.
In the case of RRIRDRPPRLPRPRPRPYILPRP, the “shrunken log2 fold change” value is reported as -0.592.
With RRIRVRPPRLPRPRPRPSFDPRP the “shrunken log2 fold change” value was -0.269.
In the case of RRIRNRPPRLPRPRPRPWFMPRP, the “shrunken log2 fold change” value is reported as 0.0336.
With RRIRMRPPRLPRPRPRPLRLPRP the “shrunken log2 fold change” value was 0.959.
For RRIRFRPPRLPRPRPRPRFSPRP, the “shrunken log2 fold change” value was 0.033.
RRIRWRPPRLPRPRPRPHYEPRP was tested, and the “shrunken log2 fold change” value was -0.209.
With RRIRARPPRLPRPRPRPHGTPRP the “shrunken log2 fold change” value was -0.0246.
In the case of RRIRCRPPRLPRPRPRPQEKPRP, the “shrunken log2 fold change” value is reported as 0.0587.
RRIRARPPRLPRPRPRPDQEPRP was tested, and the “shrunken log2 fold change” value was 0.0233.
RRIRRRPPRLPRPRPRPESVPRP was tested, and the “shrunken log2 fold change” value was 0.075.
In the case of RRIRPRPPRLPRPRPRPAWTPRP, the “shrunken log2 fold change” value is reported as 0.492.
With RRIRIRPPRLPRPRPRPYWEPRP the “shrunken log2 fold change” value was -0.152.
With RRIRQRPPRLPRPRPRPTNPPRP the “shrunken log2 fold change” value was -0.175.
With RRIRQRPPRLPRPRPRPPIWPRP the “shrunken log2 fold change” value was 0.113.
RRIRDRPPRLPRPRPRPFMMPRP was tested, and the “shrunken log2 fold change” value was -0.265.
In the case of RRIRLRPPRLPRPRPRPIYHPRP, the “shrunken log2 fold change” value is reported as -0.6.
In the case of RRIRTRPPRLPRPRPRPGRCPRP, the “shrunken log2 fold change” value is reported as 0.178.
In the case of RRIRARPPRLPRPRPRPCQKPRP, the “shrunken log2 fold change” value is reported as 0.431.
For RRIRARPPRLPRPRPRPSQNPRP, the “shrunken log2 fold change” value was -0.25.
For RRIRERPPRLPRPRPRPTHAPRP, the “shrunken log2 fold change” value was 0.332.
RRIRRRPPRLPRPRPRPITPPRP was tested, and the “shrunken log2 fold change” value was 0.243.
For RRIRMRPPRLPRPRPRPFTGPRP, the “shrunken log2 fold change” value was 0.0078.
RRIRKRPPRLPRPRPRPFGWPRP was tested, and the “shrunken log2 fold change” value was 0.682.
RRIRKRPPRLPRPRPRPEEQPRP was tested, and the “shrunken log2 fold change” value was 3.17.
With RRIRARPPRLPRPRPRPASWPRP the “shrunken log2 fold change” value was 0.537.
For RRIRYRPPRLPRPRPRPVYQPRP, the “shrunken log2 fold change” value was -0.341.
For RRIRCRPPRLPRPRPRPEMRPRP, the “shrunken log2 fold change” value was 0.835.
With RRIRFRPPRLPRPRPRPGNPPRP the “shrunken log2 fold change” value was -0.00343.
For RRIRMRPPRLPRPRPRPGKQPRP, the “shrunken log2 fold change” value was -0.00189.
For RRIRQRPPRLPRPRPRPGCAPRP, the “shrunken log2 fold change” value was 0.507.
In the case of RRIRFRPPRLPRPRPRPAYCPRP, the “shrunken log2 fold change” value is reported as -0.219.
For RRIRYRPPRLPRPRPRPFGCPRP, the “shrunken log2 fold change” value was -0.139.
RRIRWRPPRLPRPRPRPVRWPRP was tested, and the “shrunken log2 fold change” value was 0.874.
With RRIRNRPPRLPRPRPRPHSAPRP the “shrunken log2 fold change” value was -0.0468.
RRIRPRPPRLPRPRPRPVLVPRP was tested, and the “shrunken log2 fold change” value was 0.0376.
In the case of RRIRFRPPRLPRPRPRPPFSPRP, the “shrunken log2 fold change” value is reported as -0.0847.
RRIRARPPRLPRPRPRPAIAPRP was tested, and the “shrunken log2 fold change” value was 0.547.
RRIRKRPPRLPRPRPRPRYVPRP was tested, and the “shrunken log2 fold change” value was 0.0611.
In the case of RRIRDRPPRLPRPRPRPCESPRP, the “shrunken log2 fold change” value is reported as -0.00192.
In the case of RRIRDRPPRLPRPRPRPTSLPRP, the “shrunken log2 fold change” value is reported as -0.0226.
With RRIRHRPPRLPRPRPRPHMIPRP the “shrunken log2 fold change” value was 0.13.
RRIRCRPPRLPRPRPRPTYTPRP was tested, and the “shrunken log2 fold change” value was -0.793.
For RRIRNRPPRLPRPRPRPRLNPRP, the “shrunken log2 fold change” value was -0.212.
For RRIRRRPPRLPRPRPRPFSWPRP, the “shrunken log2 fold change” value was -0.469.
With RRIRMRPPRLPRPRPRPGWAPRP the “shrunken log2 fold change” value was 0.965.
RRIRMRPPRLPRPRPRPDNQPRP was tested, and the “shrunken log2 fold change” value was 0.0198.
With RRIRCRPPRLPRPRPRPHMSPRP the “shrunken log2 fold change” value was -0.193.
With RRIRPRPPRLPRPRPRPFNWPRP the “shrunken log2 fold change” value was -0.118.
RRIRERPPRLPRPRPRPLEHPRP was tested, and the “shrunken log2 fold change” value was -0.277.
RRIRRRPPRLPRPRPRPQAGPRP was tested, and the “shrunken log2 fold change” value was -9.87e-05.
In the case of RRIRLRPPRLPRPRPRPIMKPRP, the “shrunken log2 fold change” value is reported as -0.489.
For RRIRYRPPRLPRPRPRPHKNPRP, the “shrunken log2 fold change” value was -1.06.
RRIRGRPPRLPRPRPRPIIKPRP was tested, and the “shrunken log2 fold change” value was 0.237.
In the case of RRIRSRPPRLPRPRPRPECTPRP, the “shrunken log2 fold change” value is reported as 0.169.
In the case of RRIRWRPPRLPRPRPRPMQYPRP, the “shrunken log2 fold change” value is reported as 0.0439.
With RRIRLRPPRLPRPRPRPKRRPRP the “shrunken log2 fold change” value was -0.259.

— the supplement of paper PMC9112550, “Optimization of the antimicrobial peptide Bac7 by deep mutational scanning” (BMC Biology, 2022)
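Also: peptides expressed intracellularly from a pBAD plasmid library in pooled LB shake-flask culture, induced with 0.3% L-arabinose, DNA abundance read by NGS, three biological replicates, DESeq2 with apeglm shrinkage.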
